pIC50: −log10 of the molar value. Numbered stars: 1 amine (or outer) side, 2 acyl side, 3 side chain; on linkers, the order of the positions; unused ones are H or OH. Square brackets hold non-standard residues; d marks the D form. Peptide text beside a SMILES is read from it. * marks the point of attachment. Exatecan = CC[C@@]1(O)C(=O)OCc2c1cc1n(c2=O)Cc2c-1nc1cc(F)c(C)c3c1c2[C@@H](N*)CC3; Dolaproine = CO[C@@H]([C@@H]1CCCN1)[C@@H](C)C(=O)O; Hexanoyl(6-maleimido) = O=C1C=CC(=O)N1CCCCCC(=O)*; Dil = CC[C@H](C)[C@H](NC)[C@@H](CC(=O)O)OC; PABC = O=C(OCc1ccc(N[*:1])cc1)[*:2]; X1 = C[N+](C)(CCCS(=O)(=O)[O-])CCN*; NHCH2OCH2CO = O=C(COCN[*:1])[*:2]; X2 = C[C@@H](N*)[C@@H](O)c1ccccc1; NMeV = CN[C@H](C(=O)O)C(C)C
Tests used:
[1] = Size exclusion chromatography (SEC) analysis of the antibody-drug conjugates; format: physicochemical; details: SEC purity of the antibody-drug conjugate
Method: Size exclusion chromatography (SEC) analysis column is Tskgel G3000SWXL (TOSOH, 0008541); mobile phase is 0.1 M PB, pH7.0, 0.1M NaCl; isocratic elution, flow rate: 1 mL/min; column temperature: 25° C. Detection wavelength is 280 nm and 366 nm, respectively. Hydrophobic interaction chromatography (HIC) analysis column is Butyl-NPR 4.6×100 mm (TOSOH, 0042168); mobile phase A is 50 mM PB, pH7.0, 1.5 M (NH4)2SO4; mobile phase B is 50 mM PB, pH7.0, 20% acetonitrile. Separation gradient: changing from 0% B to 100% B in 2-20 min, column temperature: 30° C., flow rate: 0.6 mL/min. Detection wavelength is 280 nm and 366 nm, respectively.

[2] = Hydrophobic interaction chromatography (HIC) analysis of the antibody-drug conjugates; format: physicochemical; details: main peak of the antibody-drug conjugate, Butyl-NPR column
Method: Size exclusion chromatography (SEC) analysis column is Tskgel G3000SWXL (TOSOH, 0008541); mobile phase is 0.1 M PB, pH7.0, 0.1M NaCl; isocratic elution, flow rate: 1 mL/min; column temperature: 25° C. Detection wavelength is 280 nm and 366 nm, respectively. Hydrophobic interaction chromatography (HIC) analysis column is Butyl-NPR 4.6×100 mm (TOSOH, 0042168); mobile phase A is 50 mM PB, pH7.0, 1.5 M (NH4)2SO4; mobile phase B is 50 mM PB, pH7.0, 20% acetonitrile. Separation gradient: changing from 0% B to 100% B in 2-20 min, column temperature: 30° C., flow rate: 0.6 mL/min. Detection wavelength is 280 nm and 366 nm, respectively. The results are shown in Table 1 and FIG. 1-FIG. 6 (FIG. 1 comprises FIG. 1A and FIG. 1B; FIG. 2 comprises FIG. 2A and FIG. 2B; FIG. 3 comprises FIG. 3A, FIG. 3B, FIG. 3C, FIG. 3D, FIG. 3E, FIG. 3F, FIG. 3G and FIG. 3H; FIG. 4 comprises FIG. 4A and FIG. 4B; FIG. 5 comprises FIG. 5A and FIG. 5B; and FIG. 6 comprises FIG. 6A, FIG. 6B, FIG. 6C, […], FIG. 6E, FIG. 6F, FIG. 6G and […]).

MC38-hClaudin18.2 cells = experiment: In vitro tumor cell killing activity, MC38-hClaudin18.2 cell line (AlamarBlue); format: cell-based, mouse; details: MC38-hClaudin18.2 cells, 48-72 hours, AlamarBlue; read-out: IC50 values
Method: 9D1 antibody-drug conjugates prepared in the previous Experimental Examples and Comparative Examples were used for performing in vitro killing test on MC38 cell lines stably expressing human Claudin18.2. MC38-hClaudin18.2 cells were inoculated into a 96-well cell culture plate at 3000 cells/well, adding gradient diluted 9D1 ADCs next day to culture for 48-72 hours. The fluorescence values of each experimental well were detected by AlamarBlue reagent (ThermoFisher, item number DAL1100), and the cell viability was calculated.
When the cell confluence was greater than 80%, the cells were passaged at a ratio of 1:10 to 1:20 every 3 days.
MC38-hClaudin18.2 cells were digested by a digestive solution of recombinant enzyme (TrypLE™ Express Enzyme). […] The cell density was adjusted to 3×10^4 cells/mL, inoculating into 96-well cell culture plate at 100 μL/well. The cells were cultured overnight at 37° C. in 5% C02 incubator. The next day, the test drug was diluted 10 times in a series with a total of 7-8 concentration points, simultaneously setting a blank control with a sample concentration of 0. The diluted sample was added to 96-well cell culture plate containing cells at 100 μL/well, then incubating at 37° C. in 5% CO2 incubator for 48-72 hours. 20 μL of AlamarBlue detection reagent was added to each well, incubating at 37° C. for 4-6 hours, the fluorescence signal intensity was detected on a multifunctional enzyme-linked immunosorbent assay (ELISA) instrument with an excitation wavelength of 560 nm and an emission wavelength of 590 nm.
The cell viability of the blank control was set to 100%, and the cell viability (%) of the experimental well was calculated by the following formula: […]
The detected average cell viability was takedn as the y-axis, a sigmoid dose response (Variable Slope) method (GraphPad Prism software, GraphPad Software, San Diego, California) was used for nonlinear regression to obtain the inhibitory effect curves of cell proliferation, and the corresponding IC50 values (half maximum inhibition concentration) were calculated. […]

Cathepsin B enzyme = biological target: T1, Cathepsin B enzyme (Homo sapiens, UniProt P07858); experiment: In vitro enzymatic release of free toxin molecules by Cathepsin B; format: biochemical
T1 construct: purchased Sino Biological 10483-H08H
Method: Preparation of activated buffer solution (10 mM L-cysteine (ACRO, cat #: 173600250), 15 mM EDTA, 0.1M His HCl, pH 5.5): […] of solid cysteine was weighed, adding 3 mL of 0.1M His HCl (pH 5.5) solution for dissolution, and then adding 90 μL of 0.5M EDTA solution to mix well.
[…] At each detection time point, 50 μL of enzyme digestion solution was taken, adding 2.5 μL of 10% TFA solution to terminate the reaction for enzyme digestion kinetics detection.
Negative control preparation: 30 μL of activated buffer was taken to stay in 37° C. water bath for 15 minutes, then adding 300 μL of 0.1M His HCl (pH 5.5) solution and 36 μL of 9D1-LD-38 (375 μg) to stay in 37° C. water bath overnight.

[3] = Time 0 h, linker-toxin to Cathepsin B about 1200:1, 37° C.

Compound | SEC % [1] [%] | HIC retention time [2] [min] | other results
CC[C@@]1(O)C(=O)OCc2c1cc1n(c2=O)Cc2c-1nc1cc(F)c(C)c3c1c2[C@@H](NC(=O)OCc1ccc(NC(=O)CNC(=O)[C@H](Cc2ccccc2)NC(=O)CNC(=O)CNC(=O)CCCCCN2C(=O)C=CC2=O)cc1CN(C)C(=O)COP(=O)([O-])OCC[N+](C)(C)C)CC3 [LD-72] | 98.90 | 13.126 | 
CC[C@@]1(O)C(=O)OCc2c1cc1n(c2=O)Cc2c-1nc1cc(F)c(C)c3c1c2[C@@H](NC(=O)OCc1ccc(NC(=O)[C@H](CCC(=O)N(CCCS(=O)(=O)[O-])CC[N+](C)(C)C)NC(=O)[C@@H](NC(=O)CCOCCOCCOCCOCCNC(=O)CCN2C(=O)C=CC2=O)C(C)C)cc1)CC3 [LD-89] | 98.00 | 13.392 | 
CC[C@@]1(O)C(=O)OCc2c1cc1n(c2=O)Cc2c-1nc1cc(F)c(C)c3c1c2[C@@H](NC(=O)OCc1ccc(NC(=O)[C@H](C)NC(=O)[C@@H](NC(=O)CCOCCOCCOCCOCCNC(=O)CCN2C(=O)C=CC2=O)C(C)C)cc1CN(C)C(=O)CCOCCOCCOCCOCCOCCOCCOCCOCCOC)CC3 [LD-73] | 99.53 | 16.002 | 
CC[C@@]1(O)C(=O)OCc2c1cc1n(c2=O)Cc2c-1nc1cc(F)c(C)c3c1c2[C@@H](NC(=O)OCc1ccc(NC(=O)[C@H](C)NC(=O)[C@@H](NC(=O)[C@H](CCC(=O)O)NC(=O)CCCCCN2C(=O)C=CC2=O)C(C)C)cc1)CC3 [LD-27] |  | 15.107 | 
CC[C@H](C)[C@@H]([C@@H](CC(=O)N1CCC[C@H]1[C@H](OC)[C@@H](C)C(=O)N[C@H](C)[C@@H](O)c1ccccc1)OC)N(C)C(=O)[C@@H](NC(=O)[C@@H](NC)C(C)C)C(C)C [MMAE, monomethyl auristatin E] (H-[NMeV]V[Dil][Dolaproine]-X2) |  |  | pIC50 (MC38-hClaudin18.2 cells): 8.69
CC[C@@]1(O)C(=O)OCc2c1cc1n(c2=O)Cc2c-1nc1cc(F)c(C)c3c1c2[C@@H](NC(=O)OCc1ccc(NC(=O)[C@H](CCC(=O)NCC[N+](C)(C)CCCS(=O)(=O)[O-])NC(=O)[C@@H](NC(=O)CCOCCOCCOCCOCCNC(=O)CCN2C(=O)C=CC2=O)C(C)C)cc1)CC3 [LD-38] |  | 13.57 | Cathepsin B enzyme digestion kinetics (Cathepsin B enzyme; [3]): 0%; Cathepsin B enzyme digestion kinetics (Cathepsin B enzyme; Time 1 h): 20%; Cathepsin B enzyme digestion kinetics (Cathepsin B enzyme; Time 2 h): 77%; Cathepsin B enzyme digestion kinetics (Cathepsin B enzyme; Time 20 h): 100%
CC[C@@]1(O)C(=O)OCc2c1cc1n(c2=O)Cc2c-1nc1cc(F)c(C)c3c1c2[C@@H](NC(=O)OCc1ccc(NC(=O)[C@H](C)NC(=O)[C@@H](NC(=O)CCCCCN(C)CCN2C(=O)C=CC2=O)C(C)C)cc1CN(C)C(=O)CCC[N+](C)(C)CCCS(=O)(=O)[O-])CC3 [LD-98] | 98.79 | 13.121 | 
CC[C@@]1(O)C(=O)OCc2c1cc1n(c2=O)Cc2c-1nc1cc(F)c(C)c3c1c2[C@@H](NC(=O)OCc1ccc(NC(=O)[C@H](C)NC(=O)[C@@H](NC(=O)CCOCCOCCOCCOCCNC(=O)CCN2C(=O)C=CC2=O)C(C)C)cc1CN(C)C(=O)CCC[N+](C)(C)CCCS(=O)(=O)[O-])CC3 [LD-65] | 99.28 | 13.46 | HIC retention time ([2]; listed as 7): 13.455 min; Cathepsin B enzyme digestion kinetics (Cathepsin B enzyme; [3]): 0%; Cathepsin B enzyme digestion kinetics (Cathepsin B enzyme; Time 1 h): 0%; Cathepsin B enzyme digestion kinetics (Cathepsin B enzyme; Time 2 h): 1%; Cathepsin B enzyme digestion kinetics (Cathepsin B enzyme; Time 4 h): 1%
CC[C@H](C)[C@@H]([C@@H](CC(=O)N1CCC[C@H]1[C@H](OC)[C@@H](C)C(=O)N[C@H](C)[C@@H](O)c1ccccc1)OC)N(C)C(=O)[C@@H](NC(=O)[C@H](C(C)C)N(C)C(=O)OCc1ccc(NC(=O)[C@H](CCC(=O)NCC[N+](C)(C)CCCS(=O)(=O)[O-])NC(=O)[C@@H](NC(=O)CCCCCN2C(=O)C=CC2=O)C(C)C)cc1)C(C)C [LD-57] ({Hexanoyl(6-maleimido)}-VE(X1)[PABC][NMeV]V[Dil][Dolaproine]-X2) | 99.34 | 16.066 | 
CC[C@@]1(O)C(=O)OCc2c1cc1n(c2=O)Cc2c-1nc1cc(F)c(C)c3c1c2[C@@H](NC(=O)OCc1ccc(NC(=O)[C@H](C)NC(=O)[C@@H](NC(=O)[C@H](CCC(=O)NCC[N+](C)(C)CCCS(=O)(=O)[O-])NC(=O)CCOCCOCCOCCOCCNC(=O)CCN2C(=O)C=CC2=O)C(C)C)cc1)CC3 [LD-37] | 97.50 | 14.069 | 
CC[C@@]1(O)C(=O)OCc2c1cc1n(c2=O)Cc2c-1nc1cc(F)c(C)c3c1c2[C@@H](NC(=O)COCNC(=O)CNC(=O)[C@H](Cc1ccccc1)NC(=O)CNC(=O)CNC(=O)CCCCCN1C(=O)C=CC1=O)CC3 [Deruxtecan (MC-GGFG-Dxd), reference compound] ({Hexanoyl(6-maleimido)}-GGFG[NHCH2OCH2CO]-Exatecan) |  |  | Cathepsin B enzyme digestion kinetics (Cathepsin B enzyme; [3]): 0%; Cathepsin B enzyme digestion kinetics (Cathepsin B enzyme; Time 1 h): 0%; Cathepsin B enzyme digestion kinetics (Cathepsin B enzyme; Time 2 h): 0%; Cathepsin B enzyme digestion kinetics (Cathepsin B enzyme; Time 4 h): 0%; Cathepsin B enzyme digestion kinetics (Cathepsin B enzyme; Time 20 h): 0%; Cathepsin B enzyme digestion kinetics (Cathepsin B enzyme; Time 20 h, listed as MC-GGFG-Dxd): does not release any enzyme digestion products
CC[C@@]1(O)C(=O)OCc2c1cc1n(c2=O)Cc2c-1nc1cc(F)c(C)c3c1c2[C@@H](NC(=O)OCc1ccc(NC(=O)[C@H](C)NC(=O)[C@@H](NC(=O)CCCCCN2C(=O)C=CC2=O)C(C)C)cc1CN(C)C(=O)CN(C)C(=O)CN(C)C(=O)CN(C)C(=O)CN(C)C(=O)CN(C)C(=O)CN(C)C(=O)CN(C)C(=O)CN(C)C(=O)CN(C)C(=O)CN(C)C(C)=O)CC3 [LD-74, reference compound] | 99.53 | 13.583 | 

Source: patent publication US20260232825A1, “LINKER-DRUG MOLECULE AND ANTIBODY DRUG CONJUGATE, PREPARATION METHOD THEREFOR AND USE THEREOF” (SHANGHAI ESCUGEN BIOTECHNOLOGY CO., LTD., priority 2023, published 2026)
